The target in the test is S. Typhi PltB (pertussis-like toxin B subunit) homopentamer (Salmonella enterica serovar Typhi) (UniProt Q8Z6A3). The test is described as follows: […], sodium acetate pH 4.4) […].

By stoichiometry N is commonly meant a count of units in the complex or per binding partner. Regarding “S. Typhi PltB (pertussis-like toxin B subunit) homopentamer (from UniProt Q8Z6A3) (natural protein)”, the stoichiometry N is 5.

The record behind these values is publication PMC7055914.
